# Measured values: publication PMC7144919
# Where two headings read alike, the source gives them in different places.
# Key:
# [1] = biological target: T1, Hfq Core (Escherichia coli, UniProt P0A6X3 2-69); test: fluorescence polarization
# [2] = biological target: T2, Hfq WT (Table 3) (Escherichia coli, UniProt P0A6X3 2-69); test: fluorescence polarization
# [3] = biological target: T3, Hfq F42W (Escherichia coli, UniProt P0A6X3 2-69, F42W); test: tryptophan fluorescence quenching
# [4] = biological target: T2, Hfq WT (Table 3); test: fluorescence polarization; remark: listed apart in the source
# [5] = biological target: Hfq(2-69:Q41E) (Escherichia coli, UniProt P0A6X3 2-69, Q41E); test: fluorescence polarization
# [6] = biological target: Hfq(2-69:Q41A) (Escherichia coli, UniProt P0A6X3 2-69, Q41A); test: fluorescence polarization
# [7] = biological target: Hfq(2-69:R16A/R17A) (Escherichia coli, UniProt P0A6X3 2-69, R16A;R17A); test: fluorescence polarization
# [8] = biological target: Hfq(2-69:N13A) (Escherichia coli, UniProt P0A6X3 2-69, N13A); test: fluorescence polarization
# [9] = biological target: Hfq(2-69:R16A) (Escherichia coli, UniProt P0A6X3 2-69, R16A); test: fluorescence polarization
# [10] = biological target: T1, Hfq Core; test: fluorescence polarization; remark: listed apart in the source
# [11] = biological target: Hfq full length WT (Escherichia coli, UniProt P0A6X3 2-102); test: fluorescence polarization
# [12] = biological target: Sa Hfq (Staphylococcus aureus, UniProt A0A0H3JV59 1-77); test: fluorescence polarization
# [13] = biological target: T3, Hfq F42W; test: tryptophan fluorescence quenching; remark: listed apart in the source
binder,measurement,setting,value
3-base A-tract DNA (dsDNA) DNA 1: CGGCAAACGAAACGGCAAACGAAACGGCAAACGAAA DNA 2: TTTCGTTTGCCGTTTCGTTTGCCGTTTCGTTTGCCG,Kd,[1],0.0194 ± 0.006 µM
AAAAAAAAAAAAAAAAAAAAAAAAAAA (ssRNA) [A27],binding result,[2],binds
CAUGAUUCUUAUACGUACGACGGAAGAUGAGAAUUAUGGU (structured_RNA) [Hairpin 2],binding result,[3],binds
same,Kd,[4],0.0615 ± 0.0183 µM
"xtal DNA, 30 bp with three 6-bp A-tracts (dsDNA) DNA 1: CGGCAAAAAACGGCAAAAAACGGCAAAAAA DNA 2: TTTTTTGCCGTTTTTTGCCGTTTTTTGCCG",binding result,[3],binds
same,Kd,[5],0.0471 ± 0.0047 µM
same,Kd,[6],0.3 ± 0.0336 µM
same,Kd,[7],0.0668 ± 0.0106 µM
same,Kd,[1],0.0049 ± 0.0024 µM
same,Kd,[8],0.006 ± 0.0023 µM
same,Kd,[9],0.0341 ± 0.007 µM
same,Kd,[10],0.094 ± 0.008 µM
same,Kd,[11],0.175 ± 0.0045 µM
same,Kd,[12],6.4 µM
RacA DNA 14 bp (dsDNA) DNA 1: TGACGCCGGCGTCA DNA 2: TGACGCCGGCGTCA,Kd,[1],0.0162 ± 0.0037 µM
AUUUUUUCGAAUCGAAAGGUUCA (structured_RNA) [site A],binding result,[13],binds
same,Kd,[4],0.0227 ± 0.0015 µM
